Assay results from patent US20060275295A1 (published 2006).
One block for each binder: values may come before it.

Key:
[1] = molecular target: T1, GFP-THAP1 fusion protein (pEGFP.C2-THAP1) (human, UniProt Q5RCE4 1-213 (Pongo abelii entry)); assay: in vivo interaction assay: co-transfection in primary human endothelial cells, confocal microscopy
T1 construct: Expressed in transfected primary human endothelial cells (HUVEC); not shown: Enhanced Green Fluorescent Protein (EGFP) of pEGFP.C2 (Clontech), N-terminal
T1 sequence: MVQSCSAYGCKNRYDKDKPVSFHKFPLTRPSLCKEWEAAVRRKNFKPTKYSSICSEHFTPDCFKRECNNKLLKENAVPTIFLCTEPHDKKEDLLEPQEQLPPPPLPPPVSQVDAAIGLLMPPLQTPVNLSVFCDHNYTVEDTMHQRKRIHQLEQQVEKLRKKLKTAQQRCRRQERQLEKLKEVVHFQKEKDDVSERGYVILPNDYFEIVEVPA
From the text: To provide further evidence for a physiological interaction between THAP1 and Par4 in vivo interactions between THAP1 and PAR4 were investigated. For that purpose, confocal immunofluorescence microscopy was used to analyze the subcellular localization of epitope-tagged Par4DD in primary human endothelial cells transiently cotransfected with pEF-mycPar4DD eukaryotic expression vector and GFP or GFP-THAP1 expression vectors (pEGFP.C2 and pEGFP.C2-THAP1, respectively). To generate pEF-mycPar4DD, mycPar4DD (amino acids 250-342) was amplified by PCR using pGBKT7-Par4DD as template, with primers myc.BD7 (5′-[…]-3′) (SEQ ID NO: 195) and Par4.9 (5′-[…]-3′) (SEQ ID NO: 196), and cloned into the XbaI and NotI sites of the pEF-BOS expression vector (Mizushima and Nagata, Nucleic Acids Research, 18:5322, 1990). Primary human endothelial cells from umbilical vein (HUVEC, PromoCell, Heidelberg, Germany) were grown in complete ECGM medium (PromoCell, Heidelberg, Germany), plated on coverslips and transiently transfected in RPMI medium using GeneJammer transfection reagent according to manufacturer instructions (Stratagene, La Jolla, Calif., USA). […] Cells were then washed three times 5 min at room temperature in PBS-BSA, and incubated for 1 hr with Cy3 (red fluorescence)-conjugated goat anti-mouse (1/1000, Amersham Pharmacia Biotech) secondary antibodies, diluted in PBS-BSA. […]

[2] = molecular target: T2, human THAP1 (THanatos-Associated Protein-1), full length (human, UniProt Q9NVV9 1-213); assay: yeast two-hybrid with THAP1 bait and GST pull-down with GST-THAP1
T2 construct: Used as Gal4-BD (pGBKT7) or Gal4-AD (pGADT7, pGAD424) fusion in yeast two-hybrid and as 35S-labelled in vitro translated protein (template pGBKT7-THAP1); also called hTHAP1; THAP1 wild type
T2 sequence: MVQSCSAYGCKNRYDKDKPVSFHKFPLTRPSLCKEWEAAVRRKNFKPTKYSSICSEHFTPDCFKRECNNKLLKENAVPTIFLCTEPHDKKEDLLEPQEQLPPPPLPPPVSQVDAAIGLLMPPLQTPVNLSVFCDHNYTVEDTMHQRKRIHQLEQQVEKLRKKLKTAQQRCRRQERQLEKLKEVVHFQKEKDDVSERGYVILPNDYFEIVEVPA

[3] = molecular target: T2, human THAP1 (THanatos-Associated …); assay: yeast two-hybrid, AH109, His/Ade selection
From the text: 285) and CXCL10-2 (5′-[…]-3′) (SEQ ID NO. 286), No. 2403734 (IFNγ) with primers IFN-1 (5′-[…]-3′) (SEQ ID NO: 287) and IFN-2 (5′-[…]-3′) (SEQ ID NO: 288). The PCR products were digested with EcoRI and BamHI, and cloned between EcoRI and BamHI cloning sites of vector pGBKT7 (Clontech).

- binding result [1]: binds
B1: myc-Par4DD (epitope-tagged Par4DD, amino acids 250-342, pEF-mycPar4DD) (other, not shown: small tags and cut ends)
chain: GFPRYNRDANVSGTLVSSSTLEKKIEDLEKEVVTERQENLRLVRLMQDKEEMIGKLKEEIDLLNRDLDDIEDENEQLKQENKTLLKVVGQLTR
notes: Expressed in transfected primary human endothelial cells (HUVEC)

- binding result [2]: binds
B2: SLC/CCL21ΔCOOH (SLC/CCL21 deletion mutant lacking the basic carboxy-terminal extension, amino acids 102-134) (ligand)
chain: SDGGAQDCCLKYSQRKIPAKVVRSYRKQEPSLGCSIPAILFLPRKRSQAELCADPKELWVQQLMQHLDKTPSPQKPAQG
notes: The BamHI-PstI fragment is said to encode SLC amino acids 24-102

- binding result [3]: binds
B3: human chemokine CXCL9, mature form (amino acids 23-125) (ligand)
chain: TPVVRKGRCSCISTNQGTIHLQSLKDLKQFAPSPSCEKIEIIATLKNGVQTCLNPDSADVKELIKKWEKQVSQKKKQKNGKKHQKKKVLKVRKSQRSRQKKTT
notes: Gal4 fusion in yeast or in vitro translated (pGBKT7 or pGADT7 template); tags not built in; also called MIG/CXCL9; MIG
